Data from patent publication US20240182536A1 (MURAL ONCOLOGY, published 2024).
Residue numbers refer to the chain shown, from its start. Numbers in names are those of the source.

Tests used:
[1] = target: T1, IL-18 receptors on HEK-Blue IL-18 reporter cells (UniProt Q13478 19-541; O95256 20-599, limits assumed); assay: cell-based or functional assay
T1 sequence (looked up) 1: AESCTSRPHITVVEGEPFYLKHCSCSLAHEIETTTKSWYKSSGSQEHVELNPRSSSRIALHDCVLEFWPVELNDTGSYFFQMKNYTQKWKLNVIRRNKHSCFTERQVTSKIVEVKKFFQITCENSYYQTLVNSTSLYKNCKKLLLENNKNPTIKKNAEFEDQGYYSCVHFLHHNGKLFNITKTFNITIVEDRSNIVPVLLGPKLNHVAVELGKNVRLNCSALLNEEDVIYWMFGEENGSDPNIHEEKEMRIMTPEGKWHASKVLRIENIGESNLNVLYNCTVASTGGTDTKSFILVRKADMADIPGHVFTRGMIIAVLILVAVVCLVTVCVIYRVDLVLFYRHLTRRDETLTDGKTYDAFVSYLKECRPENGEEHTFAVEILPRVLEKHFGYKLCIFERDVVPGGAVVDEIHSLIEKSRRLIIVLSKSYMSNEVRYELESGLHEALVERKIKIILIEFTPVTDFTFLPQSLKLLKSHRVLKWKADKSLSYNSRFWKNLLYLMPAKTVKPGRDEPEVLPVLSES
T1 sequence (looked up) 2: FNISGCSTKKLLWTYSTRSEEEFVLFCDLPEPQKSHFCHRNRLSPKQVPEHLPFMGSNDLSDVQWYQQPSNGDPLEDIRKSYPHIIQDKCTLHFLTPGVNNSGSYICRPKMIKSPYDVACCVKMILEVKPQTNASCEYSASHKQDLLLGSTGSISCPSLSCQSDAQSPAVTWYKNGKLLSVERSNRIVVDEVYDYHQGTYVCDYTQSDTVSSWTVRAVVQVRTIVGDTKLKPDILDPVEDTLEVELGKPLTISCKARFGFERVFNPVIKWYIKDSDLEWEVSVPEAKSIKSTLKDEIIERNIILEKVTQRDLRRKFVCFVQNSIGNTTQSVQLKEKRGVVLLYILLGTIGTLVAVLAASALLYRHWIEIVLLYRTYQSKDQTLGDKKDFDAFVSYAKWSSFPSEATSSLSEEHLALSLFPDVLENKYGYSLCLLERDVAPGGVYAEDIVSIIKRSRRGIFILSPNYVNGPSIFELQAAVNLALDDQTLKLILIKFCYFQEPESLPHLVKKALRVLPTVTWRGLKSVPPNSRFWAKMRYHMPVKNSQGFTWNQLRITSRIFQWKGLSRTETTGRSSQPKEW

[2] = target: T2, interleukin 18 binding protein (IL-18BP) (UniProt O95998 31-194); assay: cell-based or functional assay
T2 sequence (looked up): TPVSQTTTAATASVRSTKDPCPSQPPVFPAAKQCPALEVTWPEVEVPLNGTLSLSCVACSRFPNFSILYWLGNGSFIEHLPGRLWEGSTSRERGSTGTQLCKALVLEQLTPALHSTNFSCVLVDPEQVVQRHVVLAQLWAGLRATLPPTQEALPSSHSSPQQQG

B1: IL-18 variant D23G, K53Y, S55Y (ligand)
chain: YFGKLESKLSVIRNLNDQVLFIGQGNRPLFEDMTDSDMRDNAPRTIFIISMYYDYQPRGMAVTISVKSEKISTLSSENKIISFKEMNPPDNIKDTKSDIIFFQRSVPGHDNKMQFESSSYEGYFLASEKERDLFKLILKKEDELGDRSIMFTVQNED
[1]
  HEK-Blue activity, No BP, DF-10000: 0.25
  HEK-Blue activity, No BP, DF-100,000: 0.1
  HEK-Blue activity, No BP, DF-1,000,000: 0.11
[2]
  HEK-Blue activity, +100 nM BP, DF-10000: 0.11
  HEK-Blue activity, +100 nM BP, DF-100,000: 0.1
  HEK-Blue activity, +100 nM BP, DF-1,000,000: 0.1
  Ratio (-BP/+BP), DF-10000: 2.29
  Ratio (-BP/+BP), DF-100,000: 1.09
  Ratio (-BP/+BP), DF-1,000,000: 1.13

B2: IL-18 variant K53Y, S55G, Q56H (ligand)
chain: B1 chain with G23D, Y55G, Q56H
[1]
  HEK-Blue activity, No BP, DF-10000: 0.26
  HEK-Blue activity, No BP, DF-100,000: 0.15
  HEK-Blue activity, No BP, DF-1,000,000: 0.11
[2]
  HEK-Blue activity, +100 nM BP, DF-10000: 0.3
  HEK-Blue activity, +100 nM BP, DF-100,000: 0.21
  HEK-Blue activity, +100 nM BP, DF-1,000,000: 0.18
  Ratio (-BP/+BP), DF-10000: 0.86
  Ratio (-BP/+BP), DF-100,000: 0.7
  Ratio (-BP/+BP), DF-1,000,000: 0.63

B3: IL-18 variant K53D, S55Q, H109Y (ligand)
chain: B1 chain with G23D, Y53D, Y55Q, H109Y
[1]
  HEK-Blue activity, No BP, DF-10000: 0.23
  HEK-Blue activity, No BP, DF-100,000: 0.2
  HEK-Blue activity, No BP, DF-1,000,000: 0.13
[2]
  HEK-Blue activity, +100 nM BP, DF-10000: 0.12
  HEK-Blue activity, +100 nM BP, DF-100,000: 0.15
  HEK-Blue activity, +100 nM BP, DF-1,000,000: 0.1
  Ratio (-BP/+BP), DF-10000: 1.94
  Ratio (-BP/+BP), DF-100,000: 1.36
  Ratio (-BP/+BP), DF-1,000,000: 1.27

B4: IL-18 variant T34L, S36V, D40A, N41S, K53G, S55W (ligand)
chain: B1 chain with G23D, T34L, S36V, D40A, N41S, Y53G, Y55W
[1]
  HEK-Blue activity, No BP, DF-10000: 0.22
  HEK-Blue activity, No BP, DF-100,000: 0.19
  HEK-Blue activity, No BP, DF-1,000,000: 0.14
[2]
  HEK-Blue activity, +100 nM BP, DF-10000: 0.12
  HEK-Blue activity, +100 nM BP, DF-100,000: 0.12
  HEK-Blue activity, +100 nM BP, DF-1,000,000: 0.14
  Ratio (-BP/+BP), DF-10000: 1.81
  Ratio (-BP/+BP), DF-100,000: 1.6
  Ratio (-BP/+BP), DF-1,000,000: 0.97

B5: IL-18 variant S7Y, K53H, S55M (ligand)
chain: B1 chain with S7Y, G23D, Y53H, Y55M
[1]
  HEK-Blue activity, No BP, DF-10000: 0.21
  HEK-Blue activity, No BP, DF-100,000: 0.14
  HEK-Blue activity, No BP, DF-1,000,000: 0.18
[2]
  HEK-Blue activity, +100 nM BP, DF-10000: 0.16
  HEK-Blue activity, +100 nM BP, DF-100,000: 0.15
  HEK-Blue activity, +100 nM BP, DF-1,000,000: 0.18
  Ratio (-BP/+BP), DF-10000: 1.33
  Ratio (-BP/+BP), DF-100,000: 0.94
  Ratio (-BP/+BP), DF-1,000,000: 0.98

B6: IL-18 variant K53G, S55P, R104K, H109Y (ligand)
chain: B1 chain with G23D, Y53G, Y55P, R104K, H109Y
[1]
  HEK-Blue activity, No BP, DF-10000: 0.21
  HEK-Blue activity, No BP, DF-100,000: 0.12
  HEK-Blue activity, No BP, DF-1,000,000: 0.1
[2]
  HEK-Blue activity, +100 nM BP, DF-10000: 0.12
  HEK-Blue activity, +100 nM BP, DF-100,000: 0.09
  HEK-Blue activity, +100 nM BP, DF-1,000,000: 0.09
  Ratio (-BP/+BP), DF-10000: 1.72
  Ratio (-BP/+BP), DF-100,000: 1.3
  Ratio (-BP/+BP), DF-1,000,000: 1.2

B7: IL-18 variant K53N, S55A, R104N, P107A, H109Y (ligand)
chain: B1 chain with G23D, Y53N, Y55A, R104N, P107A, H109Y
[1]
  HEK-Blue activity, No BP, DF-10000: 0.21
  HEK-Blue activity, No BP, DF-100,000: 0.13
  HEK-Blue activity, No BP, DF-1,000,000: 0.13
[2]
  HEK-Blue activity, +100 nM BP, DF-10000: 0.13
  HEK-Blue activity, +100 nM BP, DF-100,000: 0.12
  HEK-Blue activity, +100 nM BP, DF-1,000,000: 0.14
  Ratio (-BP/+BP), DF-10000: 1.64
  Ratio (-BP/+BP), DF-100,000: 1.1
  Ratio (-BP/+BP), DF-1,000,000: 0.93
